Measurements taken from patent US20080274096A1, “Fusion Proteins Having a Modulated Half-Life in Plasma” (ASTRAZENECA AB, priority 2005, published 2008).

Key:
amyloid β peptide = test: Two-compartment membrane experiment, degradation of amyloid β peptide; type: biochemical; settings: degradation in one compartment connected through a membrane
Experimental: An experiment is performed to investigate the possibility to remove amyloid β peptide from one compartment by degradation in another compartment connected through a membrane. A similar experiment was conducted using an antibody as an amyloid β peptide agent. The experiment is described by DeMattos et al., (PNAS, 2001). By degrading the amyloid β peptide with neprilysin and/or NEP-Fc in one compartment the concentration of amyloid β peptide in the other compartment is decreased. Importantly, neprilysin or NEP-Fc cannot cross the membrane due to its high molecular weight (161.000 Da and 211.000 Da, respectively).

[1] = tested on: amyloid β peptide1-42 (Aβ42); test: Degradation of Aβ1-42 in guinea pig plasma by neprilysin; type: biochemical; settings: 5 μg/ml neprilysin, 0-360 minutes at 37° C.
Experimental: (§1) Degradation of amyloid β peptide1-40 (Aβ40) and amyloid β peptide1-42 (Aβ42) by neprilysin was investigated using heparinized plasma from male Dunkin Hartley guinea pigs, weighing 250-300 g (HBLidköping ka). Blood was withdrawn from anaesthetized guinea pigs by heart puncture. The blood were collected into prechilled heparin-plasma tubes and centrifuged for 10 min at 4° C. at 3000×g within 20 minutes of sampling. Plasma samples were transferred to pre-chilled polypropylene tubes and immediately frozen on dry ice and stored at −70° C. prior to use. The experiments were performed on a pool of plasma from 5-6 guinea pigs. […] A final concentration of 4.7 mM EDTA was added into the tubes before the amount of Aβ1-40 or Aβ1-42 was analyzed by using commercial ELISA kits obtained from Biosource (Aβ1-40) or Innogenetics (Aβ1-42).

Ab1-42 = settings: purified Neprilysin; Howell et al., 1995; cited from earlier work
[2] = tested on: amyloid β peptide1-40 (Aβ40); test: Degradation of Aβ1-40 in guinea pig plasma by neprilysin; type: biochemical
Experimental: as §1

[3] = tested on: fluorogenic peptide substrate V-Mca-Arg-Pro-Gly-Phe-Ser-Ala-Phe-Lys(Dnp)-OH; test: Neprilysin enzyme activity FRET assay; type: biochemical; settings: purification with addition of 200 μM ZnCl2 versus without
Experimental: Neprilysin is affinity purified directly from the culture supernatants. Soluble Neprilysin is purified using biotinylated anti-neprilysin antibody (R&D Systems) bound to […] sepharose (GE Healthcare). 14 μg biotinylated anti-neprilysin antibody (R&D systems) was added to 140 μl streptavidin sepharose slurry (GE Healthcare) and incubated during gentle mixing for 2 hours, in room temperature. The sepharose was washed twice and resuspended in 140 μl PBS. The sepharose slurry with bound anti-neprilysin antibody, was added to 10 ml culture supernatant and the sample was incubated for 5 hours at 4° C. After incubation, the sepharose was washed once with PBS and resuspended in 1200 μl 50 mM Tris-HCl, pH 7.5, 150 mM NaCl. […] The sepharose was pelleted and the concentration of purified protein in the supernatant was measured by absorbance at 280 nm. […] The Neprilysin enzymatic activity is determined in a fluorescence resonance energy transfer (FRET) assay. […] Following addition of all components to wells, plate was immediately placed into a fluorescent plate reader (Ascent) and signal was recorded for every minute for 20 minutes at the excitation 340 nm and emission 405 nm. The activity of enzyme was evaluated by calculating the velocity of reaction-Slope coefficient=Σ ΔRFU/Δt. […]

amyloid β1-40 peptide = test: Degradation of amyloid β1-40 peptide by soluble Neprilysin in a buffer system; type: biochemical; settings: Neprilysin 1.8 μg/ml; Amyloid β1-40 peptide (1 nM); 3 hours incubation at 37° C.
Experimental: Following incubation, 50 μl of antibodies solution containing anti-Aβ40 (final concentration 0.125 μg/ml; Biosource) and Biotinylated 6E10 (final concentration 0.125 μg/ml; Signet) antibodies was added to each well. Plate was incubated at RT for 3 h. Following incubation, 50 μl of detection mixture of Dynabeads M280 (Dynal Biotech ASA) and secondary antibody Ru-GαR (final concentration 0.132 μg/ml) was added to all wells. Plate was incubated on a shaker at RT for 1 h and results were recorded on IGEN/Bio […]8 analyser. Amyloid β1-40 peptide degradation by Neprilysin was calculated as a percentage of Amyloid β1-40 peptide left after incubation in the presence of Neprilysin compared to the amyloid β1-40 peptide concentration in the absence of Neprilysin.

B1: Neprilysin: Aβ-degrading Zn-metallopeptidase; soluble extracellular domain (SEQ ID NO 1-4), commercial (R&D Systems) or produced in-house (protein, UniProt P08473 52-750, looked up)
extracellular domain: YDDGICKSSDCIKSAARLIQNMDATTEPCTDFFKYACGGWLKRNVIPETSSRYGNFDILRDELEVVLKDVLQEPKTEDIVAVQKAKALYRSCINESAIDSRGGEPLLKLLPDIYGWPVATENWEQKYGASWTAEKAIAQLNSKYGKKVLINLFVGTDDKNSVNHVIHIDQPRLGLPSRDYYECTGIYKEACTAYVDFMISVARLIRQEERLPIDENQLALEMNKVMELEKEIANATAKPEDRNDPMLLYNKMTLAQIQNNFSLEINGKPFSWLNFTNEIMSTVNISITNEEDVVVYAPEYLTKLKPILTKYSARDLQNLMSWRFIMDLVSSLSRTYKESRNAFRKALYGTTSETATWRRCANYVNGNMENAVGRLYVEAAFAGESKHVVEDLIAQIREVFIQTLDDLTWMDAETKKRAEEKALAIKERIGYPDDIVSNDNKLNNEYLELNYKEDEYFENIIQNLKFSQSKQLKKLREKVDKDEWISGAAVVNAFYSSGRNQIVFPAGILQPPFFSAQQSNSLNYGGIGMVIGHEITHGFDDNGRNFNKDGDLVDWWTQQSASNFKEQSQCMVYQYGNFSWDLAGGQHLNGINTLGENIADNGGLGQAYRAYQNYIKKNGEEKLLPGLDLNHKQLFFLNFAQVWCGTYRPEYAVNSIKTDVHSPGNFRIIGTLQNSAEFSEAFHCRKNSYMNPEKKCRVW
modifications: extracellular domain
Amyloid β peptide
  Concentration of amyloid β peptide in the other compartment: decreased
[1]
  Degradation of Aβ1-42 over time: time-dependent manner
Ab1-42
  Sites at which amyloid β peptide is cleaved in vitro: five sites
[2]; 0-20 μg/ml neprilysin, 210 minutes at 37° C.
  Degradation of Aβ1-40 versus dose: dose dependent manner
[2]; 5 μg/ml neprilysin, 0-360 minutes at 37° C.
  Degradation of Aβ1-40 over time: time-dependent manner
[3]
  Activity of purified protein with versus without added zinc: no difference in activity
Amyloid β1-40 peptide
  Amyloid β1-40 peptide degraded: 88%
